Experimental findings from US20230133118A1, “COMPOSITIONS AND METHODS FOR TREATING CANCER” (Adagene AG, priority 2020, published 2023) are described below.

In general, Kd refers to a measure of binding affinity in units of concentration.

This experiment concerns the target human CD137 (human) (UniProt Q07011). Description: surface plasmon resonance (SPR); format not described.

Sequence of Urelumab (antibody) (VH): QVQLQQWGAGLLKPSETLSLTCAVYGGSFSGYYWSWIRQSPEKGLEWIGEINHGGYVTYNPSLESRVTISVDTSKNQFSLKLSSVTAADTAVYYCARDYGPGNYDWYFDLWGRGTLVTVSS
Sequence of Urelumab (antibody) (VL): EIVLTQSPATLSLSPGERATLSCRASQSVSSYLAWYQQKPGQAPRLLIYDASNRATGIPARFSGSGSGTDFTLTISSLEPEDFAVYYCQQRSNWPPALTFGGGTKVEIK
Sequence of human CD137 (human) (Q07011 24-186 limits assumed): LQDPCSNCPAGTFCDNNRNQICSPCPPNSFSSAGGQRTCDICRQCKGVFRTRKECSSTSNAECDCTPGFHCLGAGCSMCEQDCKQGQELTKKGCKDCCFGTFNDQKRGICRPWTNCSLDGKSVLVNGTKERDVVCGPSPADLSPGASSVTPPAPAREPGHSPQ

Consider Urelumab (antibody), for which the Kd came out at 9.6 nM. This lies in the single-digit nanomolar range.
